Data taken from the DeepSol protein solubility set.

Test: soluble on expression in E. coli; label from the status in PepcDB or PDB records

Sequence: MSLAATNKRHSTSDKMHFPRSSLQPITTLGKSEFGEVFLAKAQGLEEGVAETLVLVKSLQSKDEQQQLDFRRELEMFGKLNHANVVRLLGLCREAEPHYMVLEYVDLGDLKQFLRISKSKDEKLKSQPLSTKQKVALCTQVALGMEHLSNNRFVHKDLAARNCLVSAQRQVKVSALGLSKDVYNSEYYHFRQAWVPLRWMSPEAILEGDFSTKSDVWAFGVLMWEVFTHGEMPHGGQADDEVLADLQAGKARLPQPEGCPSKLYRLMQRCWALSPKDRPSFSEIASALGDSTVDSKEGHHHHHH
- soluble on expression in E. coli: soluble

Sequence: HTLNKALADTRANLTESVGNAGEVLHDITGVVSTPMPSENDSENLFDSVSNYPTGNKSDTHNAFGSSGKTAPMPYQSAYAPQQRSLSLRESRAAMNTYAELYKKTDDIDLELSRFEQARFGNMPSETPAPQTDTPLSDGIPSQSELPPLGFAIAQLLGIYILAQAEDSLLLIDMHAAAERVNYEKMKRQRQENGNLQSQRLLIPVTFAASHEECAALADYAETLAGFGLELSDMGGNTLAVRAVPAMLGKADVVSLAKDVLNELAQVGSSQTIEEHENRILATMSCHGSIRAGRRLTLPEMNALLRDMENTPRSNQCNHGRPTWVKLTLKELDALFLRGQ
- soluble on expression in E. coli: not soluble

Sequence: MAKQIKGIAASDGVAIAKAYLLVEPDLSFDNESVTDTDAEVAKFNGALNKSKVELTKIRNNAEKQLGADKAAIFDAHLLVLEDPELIQPIEDKIKNESVNAAQALTDVSNQFITIFESMDNEYMAERAADIRDVSKRVLAHILGVELPNPSIVDESVVIIGNDLTPSDTAQLNKEYVQGFVTNIGGRTSHSAIMSRSLEIPAVVGTKSITEEVEAGDTIVVDGMTGDVLINPSDEVIAEYQEKRENFFKDKQELQKLRDAESVTADGHHVELAANIGTPNDLPGVIENGAEGIGLYRTEFLYMGRDQMPTEEEQFEAYKAVLEAMKGKRVVVRTLDIGGDKELPYLDLPEEMNPFLGYRAIRLCLDQPEIFRPQLRALLRASVFGKLNIMFPMVATIQEFRDAKALLEEERANLKNEGYEVADDIELGIMVEIPSTAALADIFAKEVDFFSIGTNDLIQYTMAADRMSERVSYLYQPYNPAILRLVKQVIEASHAEGKWTGMCGEMAGDQTAIPLLLGLGLDEFSMSATSILKARRLIRSLNESEMKELSERAVQCATSEEVVDLVEEYTKNA
- soluble on expression in E. coli: soluble

Sequence: MLPPLPDFSLSVEQQFDLQKYRQQVRDISREDLEDLFIEVVRQKMAHENIFKGMIRQGS
- soluble on expression in E. coli: soluble

Sequence: MAESPSQSDAQLVAHQSPGQQADSDLTSLVFDYKSVLCVYFFSHLLTVLKTNAIAEMSQQVQMGMENMLKMVYEIDQNSVGIKEEIEKSKDFAMEKKRILEEEKDQFQKAAYTILDMLSNSRG
- soluble on expression in E. coli: soluble

Sequence: MSIAIKDDDEFKTIFAEKKTQPVILFFTASWCGPCQMIKPRVEELAAEHKDRLSILKIDVDECDGVGEEYEINSMPTFLLIVDGIKKDQFSGANNTKFEEMVKAALQ
- soluble on expression in E. coli: not soluble

Sequence: MAPGQLALFSVSDKTGLVEFARNLTALGLNLVASGGTAKALRDAGLAVRDVSELTGFPEMLGGRVKTLHPAVHAGILARNIPEDNADMARLDFNLIRVVACNLYPFVKTVASPGVTVEEAVEQIDIGGVTLLRAAAKNHARVTVVCEPEDYVVVSTEMQSSESKDTSLETRRQLALKAFTHTAQYDEAISDYFRKQYSKGVSQMPLRYGMNPHQTPAQLYTLQPKLPITVLNGAPGFINLCDALNAWQLVKELKEALGIPAAASFKHVSPAGAAVGIPLSEDEAKVCMVYDLYKTLTPISAAYARARGADRMSSFGDFVALSDVCDVPTAKIISREVSDGIIAPGYEEEALTILSKKKNGNYCVLQMDQSYKPDENEVRTLFGLHLSQKRNNGVVDKSLFSNVVTKNKDLPESALRDLIVATIAVKYTQSNSVCYAKNGQVIGIGAGQQSRIHCTRLAGDKANYWWLRHHPQVLSMKFKTGVKRAEISNAIDQYVTGTIGEDEDLIKWKALFEEVPELLTEAEKKEWVEKLTEVSISSDAFFPFRDNVDRAKRSGVAYIAAPSGSAADKVVIEACDELGIILAHTNLRLFHH
- soluble on expression in E. coli: soluble

Sequence: MVPEVFAQARLRMDQLTKPPRALGYLEEVALRLAALQGRVKPELGRGAVVVAAADHGVVAEGVSAYPQEVTRQMVLNFLRGGAAINQFALAADCAVYVLDVGVVGELPDHPGLLKRKVRPGTANLAQGPAMTPEEAERALLAGREAARRAIAEGATLLAAGDMGIGNTTAAAALTAALLGLPPEAVVGRGTGVGEEGLRRKRQAVARALARLHPGMGPLEVAAEVGGIELVAIAGIYLEGYEAGLPLVLDGFPVTAGALLAWKMAPGLRDHLFAGHLSREPGHRHQLEALGLRPLLDLDLALGEGTGAVLAMPLLRAAARILHMATFQEAGVSRG
- soluble on expression in E. coli: soluble

Sequence: MTIPTSYLNHTDAEAARKARATYRDGLVAPTSGIAPGFTQANMIVLPRDWAFDFLLYAQRNPKPCPVLDVSDPGSPTTLLAPGADLRTDLPLYRIWRDGKLAEETADATSAWAERDDLVAFLIGCSFTFETPMVEAGIEIRHMTDKSNVPMYLTNRPCRPAGRLKGNMVVSMRPIPASRVADAATISGRFPAVHGAPVHVGAPEQIGISDLSKPDFGDAVRIEPGEVPVFWACGVTPQAAVMASGVPFAITHAPGHMFITDIPDTAYHALEHHHHHH
- soluble on expression in E. coli: soluble

Sequence: MSGIAAGRLAEERKHWRKDHPFGFIAKPVKNADGTLNLFNWECAIPGRKDTIWEGGLYRIRMLFKDDFPSTPPKCKFEPPLFHPNVYPSGTVCLSLLDENKDWKPSISIKQLLIGIQDLLNHPNIEDPAQAEAYQIYCQNRAEYEKRVKKEAVKYAAELVQKQMLE
- soluble on expression in E. coli: not soluble

Sequence: MESEMSDPQPLQEERYDMSGARLALTLCVTKAREGSEVDMEALERMFRYLKFESTMKRDPTAQQFLEELDEFQQTIDNWEEPVSCAFVVLMAHGEEGLLKGEDEKMVRLEDLFEVLNNKNCKALRGKPKVYIIQACRGEHRDPGEELRGNEELGGDEELGGDEVAVLKNNPQSIPTYTDTLHIYSTVEGYLSYRHDEKGSGFIQTLTDVFIHKKGSILELTEEITRLMANTEVMQEGKPRKVNPEVQSTLRKKLYLQ
- soluble on expression in E. coli: soluble

Sequence: MSLSKSRKIDVHAHVLPKNIPDFQEKFGYPGFVRLDHKEDGTTHMVKDGKLFRVVEPNCFDTETRIADMNRANVNVQCLSTVPVMFSYWAKPADTEIVARFVNDDLLAECQKFPDRLVPLGTLPMNDVQRAVEEVKRCVSMGIKGFEVGSHVAEKSLDHRDFWPLYKICEELSVVLFVHPWDMHMWDGRLDKYWMPWLVGMPSETAQAICSVLMGNILVLFPKLKLCFAHGGGAYPQIRGRVSHGWNVRPDLCAGKCKVAPNKLDGLLWTDSLVHDPKALELLINTVGKEHIVLGTDYPFPLGELEVGRVVEEYKPFSAKDREDLLWKNAVKMLDIDENLLFNKDFEGHHHHHH
- soluble on expression in E. coli: not soluble

Sequence: MGSDKIHHHHHHMEKAVENFEDLSKEYINGYIERARKAQREFECYTQEQVDKIVKIVGKVVYYNAEYLAKLAVEETGMGVYEDKVAKNKSKAKVIYNNLKDKKSVGIIDIDRETGITKVAKPVGVVAAITPCTNPIVTPMSNAMFALKGRNAIIITPHHKAIGCSTKTVEMINEELEKIGAPENLIQILDQQSRENTRNLISSADVVIATGGMGMVKAAYSSGKPALGVGAGNVQCIIDRDVDIKEAVPKIIAGRIFDNGIICSGEQSVIVAEEMFDKIMDEFKNNKGFIVRDKVQKEAFRNAMFVNKSMNKDAVGQSVHTIAKIAGVEIPEDTKIIVIEADGPGEEDIIAKEKMCPVISAYKYKSFEEGVAIAKANLNVEGKGHSVSIHSNTVKNIEYAGENIEVSRFVINQCCATSAGGSFFNGLAPTNTLGCGSWGNNSISENLDYKHLINISRIAYYMPENEVPTDEELWG
- soluble on expression in E. coli: not soluble

Sequence: MKRLRNKMTTEELAECLGVAKQTVNRWIREKGWKTEKFPGVKGGRARLILVDTQVCEFIQNTPAFHNTPMLMEAEERIAEYAPGARAPAYRQIINAIDNMTDIEQEKVAQFLSREGIRNFLARLDIDESA
- soluble on expression in E. coli: not soluble

Sequence: MDIVQLGPAELKAWMDEGRMFCLLDVRTDEETAVCSLPNALHIPMNLIPLRQNELPDDVPLVVYCHHGIRSLHTAMYLADAGFENLYNLQGGIDAWAAEIDGNMMRY
- soluble on expression in E. coli: not soluble

Sequence: MGHHHHHHSHGTRQELSGNTKSRESIQEPRSDYYNHEVPDIDLSDCEFPHVIEIYDFPQEFRTEDLLRVFCSYQKKGFDIKWVDDTHALGVFSSPITARDALGIKHTMVKIRPLSQATRAAKAKARAYAEFLQPAKERPETSAALARRLVISALGVRSKQSKTEREAELKKLQEARERKRLEAKQREDIWEGRDQSTV
- soluble on expression in E. coli: soluble

Sequence: MSKTTQSRETTLAGHPVEYEVRRSEDATEPRIDIDIRGVTVVLPAESEESPEALLSENLNWVLETKRTYERHRERAPERRFEPGAAFPYLGDDHEIVVEPRPAHGVGDGEIRLRQSTVDQSSLKRVLENFYRSRAREHLTDRTDALADSMNHTYDRIELRNQRTRWGSCSTNGVLSFNWRLVMAPPDVIDYVVVHELAHLRESGHNDRFWRLVEMEIPEYRELSDWLDTNSVDLIFSKDDLLEHHHHHH
- soluble on expression in E. coli: soluble

Sequence: MGIIISLVAPTVSSTISSRLMIGPENNEKDAKNSDRTKYDNLAMLGRSPEQKEHVNPFEKAPVARPTRNTVDSQMMLGPPKKANDQSASDCSIYDNLVVPMSELGPTPGNKPSPNPIEGAPMIRPPQDTVSRAPDNSIYDTLQMTPEVDWSKKMTMKSMKKTGK
- soluble on expression in E. coli: not soluble

Sequence: MKKWLLAAGLGLAMVTSAQAADKIAIVNMGNLFQQVAQKTGVSNTLENEFKGRAAELQKMETDLQSKMQRLQSMKAGSDRTKLEKDVMSQRQTFAQKAQAFEKDRARRSNEERNKLVTRIQTAVKKVANDQSIDLVVDANTVAYNSSDVKDITADVLKQVK
- soluble on expression in E. coli: not soluble

Sequence: MFVIGIPTLNEADNISRLVKQIDEYAVNLGKEIIIINSDSKSTDGTPQIFLETKTYNTKVSIVSEAKGKGYNVRNIFEYAINHVPNFSGLILIDGDVVSMKKMWLEKMFIAIESGNDLIIPNYARKSFEGNATNHFIYPMLVKIFKRDMPYQCISGDFGFSRGLIKDLTLKCNWHKYTLGYGIDIFLTLTAILKSYKIKEIDLQSKIHKKSFEKIEKIFLEVSQSFFETINDNSLNQDKLRLNINFESHSRQFIKSSDILSSNDIENLKLRALFLLQEEKQYLHGLSEVEWDGILSNTINNIYRYSSEEHSLYLLPLYLLRVYNYLKYN
- soluble on expression in E. coli: not soluble

Sequence: MGSDKIHHHHHHMNAVPQWRLAGDWFDICSCDIPCPCEFAQRPTGNHCQGVLAWHVREGQYGDVKLDGLTLVALGEFEGNLWAGEAKAVMGMYLDEKANESQREALQAIFGGHAGGWPAGFAANVGEMRGMEFVPITFEVAGDLATWRVEIPGLVVGRVEALSGPTTPPGKRVQTINPPGSEVGPGQVATWGRSVEVSTKGFGLDWIGTARSSKHIPFDWTGPS
- soluble on expression in E. coli: not soluble

Sequence: MTAPLPLDWTFPYVSQRMPALGENMVCTEQPLANQAAMRMLAAGGNAVDAAIAAAITMTVVGPCMNGIGGDLFAIIWDGRQLHGLNASGRAPQAWTREYFSRHDAMPARGWDAVTVPGAVSGWVALSRKFGKLDFARLFEPALHYARHGFLVTPITARQWADQAEPIMQGPGFRDAFAPNGRTPQPGERFICPGQADTLQDIADTHGESFYRGALAARIAAFARETGGALTKADLAAHQADWVDPIGAQYGELTLHEIGPSGQGIGALMALGMLDGLSGKLGQPDSTDFYHYQIEAMKLAFADINRYVADPASMREVSAEMLLDRAYLATRAGAIDPAEARYPGPGKPHNGGTTYLTAADADGMMVSLIQSNFKGFGSGVVVPGTGIALHNRGWGFNLIEGHPNEVGPGKRPFHTIIPGFLMRDGEPLMSFGVMGGSLQAQGHVQVTVRTAAGQNPQAIVDAPRWRILEDNRTVMVEWNFPDAAVAGLRERGHAVTVAPRFSDEFGGSQAIMRIEGGYLGASDHRKDGQASALLEHHHHHH
- soluble on expression in E. coli: not soluble
